B1: MMP-12 (protein)
chain: GPVWRKHYITYRINNYTPDMNREDVDYAIRKAFQVWSNVTPLKFSKINTGMADILVVFARGAHGDFHAFDGKGGILAHAFGPGSGIGGDAHFDEDEFWTTHSGGTNLFLTAVHEIGHSLGLGHSSDPKAVMFPTYKYVDINTFRLSADDIRGIQSLYGDPKENQRLPNPDNSEPALCDPNLSFDAVTTVGNKIFFFKDRFFWLKVSERPKTSVNLISSLWPTLPSGIEAAYEIEARNQVFLFKDDKYWLISNLRPEPNYPKSIHSFGFPNFVKKIDAAVFNPRFYRTYFFVDNQYWRYDERRQMMDPGYPKLITKNFQGIGPKIDAVFYSKNKYYYFFQGSNQFEYDFLLQRITKTLKSNSWFGC
B2: Plasmin (protein)
chain: KVYLSECKTGNGKNYRGTMSKTKNGITCQKWSSTSPHRPRFSPATHPSEGLEENYCRNPDNDPQGPWCYTTDPEKRYDYCDILECEEECMHCSGENYDGKISKTMSGLECQAWDSQSPHAHGYIPSKFPNKNLKKNYCRNPDRELRPWCFTTDPNKRWELCDIPRCTTPPPSSGPTYQCLKGTGENYRGNVAVTVSGHTCQHWSAQTPHTHNRTPENFPCKNLDENYCRNPDGKRAPWCHTTNSQVRWEYCKIPSCDSSPVSTEQLAPTAPPELTPVVQDCYHGDGQSYRGTSSTTTTGKKCQSWSSMTPHRHQKTPENYPNAGLTMNYCRNPDADKGPWCFTTDPSVRWEYCNLKKCSGTEASVVAPPPVVLLPDVETPSEEDCMFGNGKGYRGKRATTVTGTPCQDWAAQEPHRHSIFTPETNPRAGLEKNYCRNPDGDVGGPWCYTTNPRKLYDYCDVPQCAAPSFDCGKPQVEPKKCPGRVVGGCVAHPHSWPWQVSLRTRFGMHFCGGTLISPEWVLTAAHCLEKSPRPSSYKVILGAHQEVNLEPHVQEIEVSRLFLEPTRKDIALLKLSSPAVITDKVIPACLPSPNYVVADRTECFITGWGETQGTFGAGLLKEAQLPVIENKVCNRYEFLNGRVQSTELCAGHLAGGTDSCQGDSGGPLVCFEKDKYILQGVTSWGLGCARPNKPGVYVRVSRFVTWIEGVMRNN
B3: MMP-2 (protein)
chain: YNFFPRKPKWDKNQITYRIIGYTPDLDPETVDDAFARAFQVWSDVTPLRFSRIHDGEADIMINFGRWEHGDGYPFDGKDGLLAHAFAPGTGVGGDSHFDDDELWTLGEGQVVRVKYGNADGEYCKFPFLFNGKEYNSCTDTGRSDGFLWCSTTYNFEKDGKYGFCPHEALFTMGGNAEGQPCKFPFRFQGTSYDSCTTEGRTDGYRWCGTTEDYDRDKKYGFCPETAMSTVGGNSEGAPCVFPFTFLGNKYESCTSAGRSDGKMWCATTANYDDDRKWGFCPDQGYSLFLVAAHEFGHAMGLEHSQDPGALMAPIYTYTKNFRLSQDDIKGIQELYGASPDIDLGTGPTPTLGPVTPEICKQDIVFDGIAQIRGEIFFFKDRFIWRTVTPRDKPMGPLLVATFWPELPEKIDAVYEAPQEEKAVFFAGNEYWIYSASTLERGYPKPLTSLGLPPDVQRVDAAFNWSKNKKTYIFAGDKFWRYNEVKKKMDPGFPKLIADAWNAIPDNLDAVVDLQGGGHSYFFKGAYYLKLENQSLKSVKFGSIKSDWLGC
B4: CathepsinK (protein)
chain: APDSVDYRKKGYVTPVKNQGQCGSCWAFSSVGALEGQLKKKTGKLLNLSPQNLVDCVSENDGCGGGYMTNAFQYVQKNRGIDSEDAYPYVGQEESCMYNPTGKAAKCRGYREIPEGNEKALKRAVARVGPVSVAIDASLTSFQFYSKGVYYDESCNSDNLNHAVLAVGYGIQKGNKHWIIKNSWGENWGNKGYILMARNKNNACGIANLASFPKM
B5: Chymase (protein)
chain: IIGGTECKPHSRPYMAYLEIVTSNGPSKFCGGFLIRRNFVLTAAHCAGRSITVTLGAHNITEEEDTWQKLEVIKQFRHPKYNTSTLHHDIMLLKLKEKASLTLAVGTLPFPSQFNFVPPGRMCRVAGWGRTGVLKPGSDTLQEVKLRLMDPQACSHFRDFDHNLQLCVGNPRKTKSAFKGDSGGPLLCAGVAQGIVSYGRSDAKPPAVFTRISHYRPWINQILQAN

Legend:
[1] = target: RACPP with substrate PLGC(me)AG
[2] = target: RACPP with substrate PLGLEEA
[3] = target: RACPP with substrate SYPYKY
[4] = target: RACPP with substrate TIAHLA
[5] = target: RACPP with substrate TLSLEH
[6] = target: RACPP with substrate KLRFSQK
[7] = target: RACPP with substrate Nle-TPRSFL
[8] = target: RACPP with substrate TGRAAA
[9] = target: RACPP with substrate YGRAAA
[10] = target: RACPP with substrate GVAYSGA
[11] = target: RACPP with substrate RLQLK(Ac)L

| Protein | Kcat/Km [1] | Kcat/Km [2] | Kcat/Km [3] | Kcat/Km [4] | Kcat/Km [5] | Kcat/Km [6] | Kcat/Km [7] | Kcat/Km [8] | Kcat/Km [9] | Kcat/Km [10] | Kcat/Km [11] |
| --- | --- | --- | --- | --- | --- | --- | --- | --- | --- | --- | --- |
| B1 | 9170 | 10500 | 14000 | 2320 | 1400 | – | – | – | – | – | – |
| B2 | – | – | 19400 | – | – | 6510 | 13000 | 4160 | 7720 | – | – |
| B3 | 36400 | 2420 | – | 16200 | 11400 | – | – | – | 426 | – | – |
| B4 | 2640 | 787 | – | 833 | 497 | 7440 | 2350 | – | – | 1070 | 2870 |
| B5 | – | – | 16400 | 11500 | 2270 | 1970 | – | – | – | 48100 | – |

From patent publication US20220288223
